Reference: patent US20250206828A1, “ANTI-ADENOSINE RECEPTOR (A2aR) ANTIBODIES AND THE USE THEREOF” (Adept Therapeutics Inc., priority 2022, published 2025)
Numbering of substitutions follows the chain as printed. Names may count otherwise.

B1: Hu3F6-H2/Hu3F6-L8 (antibody, human IgG1, V domains shown)
VH: EVQLVQSGAEVKKPGASVKVSCKTSGFAFTSYWMNWVRQAPGQGLEWMGRIDPSDSEAHYHHKFWGRVTMTVDTSTSTVYMELSSLRSEDTAVYYCLRSLYGKGDYWGHGTTVTVSS
VL: DVVMTQSPLSLPVTPGEPASISCRSSQSLVHRNGNTYLEWYLQKPGQSPQLLIYKVSNRFSGVPDRFSGSGSGTDFTLKISRVEAEDVGVYYCYQGSHVPLTFGGGTKVEIK
notes: Human IgG1 FES (L234F, L235E, P331S) and human Ig kappa constant domains; also called Hu3F6 VH2/VL8
B2: Hu3F6-H2/Hu3F6-L4 (antibody, human IgG1, V domains shown)
VH: B1 VH
VL: B1 VL with V2I, S7T, P12S, E17Q
notes: Human IgG1 FES (L234F, L235E, P331S) and human Ig kappa constant domains; also called Hu3F6 VH2/VL4
B3: Hu3F6-H2/Hu3F6-L3 (antibody, human IgG1, V domains shown)
VH: B1 VH
VL: B1 VL with P15L, E17Q, L42Q, K44R, Q50R
notes: Human IgG1 FES (L234F, L235E, P331S) and human Ig kappa constant domains; also called Hu3F6 VH2/VL3
B4: Hu3F6-H2/Hu3F6-L5 (antibody, human IgG1, V domains shown)
VH: B1 VH
VL: B1 VL with S7T, P12S, E17Q
notes: Human IgG1 FES (L234F, L235E, P331S) and human Ig kappa constant domains; also called Hu3F6 VH2/VL5
B5: Hu3F6-H3/Hu3F6-L8 (antibody, human IgG1, V domains shown)
VH: B1 VH with M48I, V68A, M70L, T76S
VL: B1 VL
notes: Human IgG1 FES (L234F, L235E, P331S) and human Ig kappa constant domains; also called Hu3F6 VH3/VL8
B6: Hu3F8-H5.1/Hu3F8-L3 (antibody, human IgG1, V domains shown)
VH: B1 VH with T24A, A28T, S31R, M48I, A58T, H61A, V68A, M70L, T74K, H109Q
VL: B1 VL with P15L, E17Q, L29I, R32S, L42Q, K44R, Q50R
notes: Human IgG1 FES (L234F, L235E, P331S) and human Ig kappa constant domains; also called Hu3F8 VH5.1/VL3
B7: Hu3F8-H5.1/Hu3F8-L5 (antibody, human IgG1, V domains shown)
VH: B1 VH with T24A, A28T, S31R, M48I, A58T, H61A, V68A, M70L, T74K, H109Q
VL: B1 VL with L29I, R32S
notes: Human IgG1 FES (L234F, L235E, P331S) and human Ig kappa constant domains; also called Hu3F8 VH5.1/VL5
B8: Hu1B5-H3/Hu1B5-L1: humanized anti-A2aR IgG1 FES antibody; HCVR SEQ ID NO:54, LCVR SEQ ID NO:71 (antibody, V domains shown)
VH: EVQLVQSGAEVKKPGASVKVSCKTSGFTFTRFWMNWVRQAPGQGLEWIGRIDPYDSETQYNHKFWDRATLTVDTSSSTVYMELSSLRSEDTAVYYCGRSLYGKGDYWGQGTTVTVSS
VL: B1 VL with P15L, E17Q, L29I, R32S, Y41F, L42Q, K44R, Q50R, L51R, Y94F
modifications: IgG1 FES constant regions
B9: Hu1B5-H4/Hu1B5-L1: humanized anti-A2aR IgG1 FES antibody; HCVR SEQ ID NO:55, LCVR SEQ ID NO:71 (antibody, V domains shown)
VH: B8 VH with T74K
VL: B1 VL with P15L, E17Q, L29I, R32S, Y41F, L42Q, K44R, Q50R, L51R, Y94F
modifications: IgG1 FES constant regions
B10: Hu1B5-H5/Hu1B5-L1: humanized anti-A2aR IgG1 FES antibody; HCVR SEQ ID NO:56, LCVR SEQ ID NO:71 (antibody, V domains shown)
VH: B8 VH with N61A, T74K
VL: B1 VL with P15L, E17Q, L29I, R32S, Y41F, L42Q, K44R, Q50R, L51R, Y94F
modifications: IgG1 FES constant regions
B11: Hu3F8-H6/Hu3F8-L2 (antibody, human IgG1, V domains shown)
VH: EVQLVQSGAEVKKPGESLRISCKASGFTFTRYWMNWVRQMPGKGLEWIGRIDPSDSETHYNHKFWGHATLSVDKSSSTVYLQWSSLKASDTAMYYCLRSLYGKGDYWGQGTTVTVSS
VL: B1 VL with P15L, E17Q, L29I, R32S, L42Q, K44R, Q50R, L51R
notes: Human IgG1 FES (L234F, L235E, P331S) and human Ig kappa constant domains
B12: Hu3F8-H1/Hu3F8-L4 (antibody, human IgG1, V domains shown)
VH: B1 VH with E1Q, T24A, A28T, S31R, A58T, H61N, V72R, H109Q
VL: B1 VL with V2I, L29I, R32S
notes: as for B11
B13: Hu3F8-H2/Hu3F8-L1 (antibody, human IgG1, V domains shown)
VH: B1 VH with T24A, A28T, S31R, A58T, H61N, H109Q
VL: B1 VL with P15L, E17Q, L29I, R32S, Y41F, L42Q, K44R, Q50R, L51R
notes: as for B11
B14: Hu3F8-H1/Hu3F8-L2 (antibody, human IgG1, V domains shown)
VH: B1 VH with E1Q, T24A, A28T, S31R, A58T, H61N, V72R, H109Q
VL: B1 VL with P15L, E17Q, L29I, R32S, L42Q, K44R, Q50R, L51R
notes: as for B11
B15: Hu3F8-H1/Hu3F8-L1 (antibody, human IgG1, V domains shown)
VH: B1 VH with E1Q, T24A, A28T, S31R, A58T, H61N, V72R, H109Q
VL: B1 VL with P15L, E17Q, L29I, R32S, Y41F, L42Q, K44R, Q50R, L51R
notes: as for B11
B16: Hu3F8-H2/Hu3F8-L4 (antibody, human IgG1, V domains shown)
VH: B1 VH with T24A, A28T, S31R, A58T, H61N, H109Q
VL: B1 VL with V2I, L29I, R32S
notes: as for B11
B17: Hu1B5-H6/Hu1B5-L5 (antibody, human IgG1, V domains shown)
VH: B11 VH with A24T, Y32F, S54Y, H59Q, G66D, L97G
VL: DIVMTQSPDSLAVSLGERATINCRSSQSIVHSNGNTYLEWYQQKPGQPPKLLIYKVSNRFSGVPDRFSGSGSGTDFTLTISSLQAEDVAVYYCFQGSHVPLTFGGGTKVEIK
notes: as for B11
B18: Hu1B5-H4/Hu1B5-L2 (antibody, human IgG1, V domains shown)
VH: B8 VH with T74K
VL: B1 VL with P15L, E17Q, L29I, R32S, L42Q, K44R, Q50R, L51R, Y94F
notes: as for B11
B19: Hu1B5-H1/Hu1B5-L3 (antibody, human IgG1, V domains shown)
VH: B8 VH with E1Q, T24A, I48M, A68V, L70M, V72R, S76T
VL: B1 VL with P15L, E17Q, L29I, R32S, L42Q, K44R, Q50R, Y94F
notes: as for B11
B20: Hu1B5-H3/Hu1B5-L3 (antibody, human IgG1, V domains shown)
VH: B8 VH
VL: B1 VL with P15L, E17Q, L29I, R32S, L42Q, K44R, Q50R, Y94F
notes: as for B11
B21: Hu1B5-H6/Hu1B5-L3 (antibody, human IgG1, V domains shown)
VH: B11 VH with A24T, Y32F, S54Y, H59Q, G66D, L97G
VL: B1 VL with P15L, E17Q, L29I, R32S, L42Q, K44R, Q50R, Y94F
notes: as for B11
B22: Hu1B5-H2.1/Hu1B5-L3 (antibody, human IgG1, V domains shown)
VH: B8 VH with A68V, L70M, S76T
VL: B1 VL with P15L, E17Q, L29I, R32S, L42Q, K44R, Q50R, Y94F
notes: as for B11
B23: Hu1B5-H2/Hu1B5-L2 (antibody, human IgG1, V domains shown)
VH: B8 VH with I48M, A68V, L70M, S76T
VL: B1 VL with P15L, E17Q, L29I, R32S, L42Q, K44R, Q50R, L51R, Y94F
notes: as for B11
B24: Hu1B5-H3/Hu1B5-L2 (antibody, human IgG1, V domains shown)
VH: B8 VH
VL: B1 VL with P15L, E17Q, L29I, R32S, L42Q, K44R, Q50R, L51R, Y94F
notes: as for B11
B25: Hu1B5-H2.1/Hu1B5-L2 (antibody, human IgG1, V domains shown)
VH: B8 VH with A68V, L70M, S76T
VL: B1 VL with P15L, E17Q, L29I, R32S, L42Q, K44R, Q50R, L51R, Y94F
notes: as for B11
B26: Hu1B5-H5/Hu1B5-L2 (antibody, human IgG1, V domains shown)
VH: B8 VH with N61A, T74K
VL: B1 VL with P15L, E17Q, L29I, R32S, L42Q, K44R, Q50R, L51R, Y94F
notes: as for B11
B27: Hu1B5-H6/Hu1B5-L4 (antibody, human IgG1, V domains shown)
VH: B11 VH with A24T, Y32F, S54Y, H59Q, G66D, L97G
VL: B1 VL with L29I, R32S, Y94F
notes: as for B11
B28: Hu1B5-H5/Hu1B5-L3 (antibody, human IgG1, V domains shown)
VH: B8 VH with N61A, T74K
VL: B1 VL with P15L, E17Q, L29I, R32S, L42Q, K44R, Q50R, Y94F
notes: as for B11
B29: Hu1B5-H2/Hu1B5-L3 (antibody, human IgG1, V domains shown)
VH: B8 VH with I48M, A68V, L70M, S76T
VL: B1 VL with P15L, E17Q, L29I, R32S, L42Q, K44R, Q50R, Y94F
notes: as for B11
B30: Hu1B5-H4/Hu1B5-L3 (antibody, human IgG1, V domains shown)
VH: B8 VH with T74K
VL: B1 VL with P15L, E17Q, L29I, R32S, L42Q, K44R, Q50R, Y94F
notes: as for B11
B31: Hu1B5-H6/Hu1B5-L2 (antibody, human IgG1, V domains shown)
VH: B11 VH with A24T, Y32F, S54Y, H59Q, G66D, L97G
VL: B1 VL with P15L, E17Q, L29I, R32S, L42Q, K44R, Q50R, L51R, Y94F
notes: as for B11

target: T1, human adenosine A2A receptor (A2aR) (human, UniProt P29274 1-412); assay: flow cytometry, HEK293-hA2aR cells, supernatant 1 ug/ml; conditions: not given
T1 construct: Assays used HEK293 cells stably overexpressing human A2aR (BPS Bioscience 79381), human A2aR-expressing CHO cells, or endogenous A2aR on human PBMC; also called human A2aR; hA2aR
T1 sequence (P29274 whole entry): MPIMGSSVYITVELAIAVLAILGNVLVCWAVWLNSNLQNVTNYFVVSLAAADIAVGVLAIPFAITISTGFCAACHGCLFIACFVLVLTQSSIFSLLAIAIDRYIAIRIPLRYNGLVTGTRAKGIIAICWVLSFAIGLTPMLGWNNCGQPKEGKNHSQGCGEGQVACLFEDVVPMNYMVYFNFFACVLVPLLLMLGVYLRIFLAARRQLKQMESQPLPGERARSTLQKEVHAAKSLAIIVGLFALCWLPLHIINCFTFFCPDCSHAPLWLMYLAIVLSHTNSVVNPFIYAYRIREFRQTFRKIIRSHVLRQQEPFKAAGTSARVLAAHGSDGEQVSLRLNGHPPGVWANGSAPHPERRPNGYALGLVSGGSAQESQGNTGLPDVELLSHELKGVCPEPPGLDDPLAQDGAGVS

Molecule	MFI [MFI]
B1	1710
B2	1590
B3	1830
B4	1790
B5	1830

target: T1, human adenosine A2A receptor (A2aR); assay: flow cytometry titration, HEK293-hA2aR cells, purified antibody; conditions: not given

Molecule	EC50 [nM]
B1	0.76
B2	0.68
B3	0.65
B4	0.53
B6	0.62
B5	0.76
B7	0.69

target: human A2aR (Homo sapiens, UniProt P29274); assay: Binding of humanized anti-A2aR antibodies in transfected Expi293F cell supernatant to human A2aR on HEK293 cells (FACS, MFI); conditions: supernatant normalized to 1 μg/ml antibody; HEK293 cells stably overexpressing human A2aR; greater MFI = stronger binding; parental value average of triplicate
Experimental: Briefly, HEK293 cells that stably overexpress human A2aR (HEK-hA2aR OCL, BPS Bioscience, Cat. 79381) were collected from fresh culture. Cells were then resuspended in FACS buffer (1×DPBS/1% FBS) at 10^6/ml concentration. One hundred microliters (100 μl) of cells were aliquoted into each well of a 96 well plates. After centrifugation, cell pellets in each well were then resuspended with 100 μl normalized supernatant samples containing 1 μg/ml humanized anti-A2aR monoclonal antibody variants collected from transfected Expi293 cell culture. The supernatants were mixed with the cells and incubated on ice for 1 hours. After washing the mixtures of the supernatants containing expressed antibodies and the A2aR-expressing cells with FACS buffer, one hundred microliters (100 μl) of 1:400 diluted PE-conjugated anti-human Fc secondary antibody (Jackson Immuno Research, Cat. 109-116-098) was added to each well followed by an incubation for 30 minutes on ice. After washes with FACS buffer, stained cells were resuspended in 150 μl of 7-AAD (Biolegend, Cat. 420404) diluted 1:100 in 1×DPBS buffer and incubate for 5 minutes in the dark at room temperature before FACS analysis. The mean fluorescence intensity (MFI) was obtained using Guava 11HT or 5HT (Luminex). Data was analyzed using Flowjo software.
As shown in Tables 22-24, exemplary humanized anti-A2aR antibodies bind to A2aR expressed on a cell surface. A greater MFI value means stronger binding of the exemplary antibody to A2aR expressed on a cell surface.

Chain of human A2aR (P29274 whole entry): as above

Molecule	binding to human A2aR on cell surface, mean fluorescence intensity (MFI)
B8	152
B9	182
B10	82

target: T1, human adenosine A2A receptor (A2aR); assay: flow cytometry, HEK293-hA2aR cells, supernatant 1 ug/ml; conditions: not given; remark: another data set of the same source

Molecule	MFI [MFI]
B11	285
B12	1750
B13	16
B14	10
B15	9
B16	1780

target: T1, human adenosine A2A receptor (A2aR); assay: as above; conditions: not given; remark: another data set of the same source

Molecule	MFI [MFI]
B17	702
B18	263
B19	1840
B20	1850
B21	1910
B22	1860
B23	243
B24	231
B25	225
B26	283
B27	1910
B28	1950
B29	1870
B30	1860
B31	359
